These results are taken from paper PMC8882607 (Journal of Molecular Biology, 2022).

For this assay, the target named is NTF2-like domain of human G3BP1 (residues 1-139) (human, UniProt Q13283 1-139). Description: ITC. A general note: ITC needs no label: the signal is the heat of the interaction.
Chain of NTF2-like domain of human G3BP1 (residues 1-139) (Q13283 1-139): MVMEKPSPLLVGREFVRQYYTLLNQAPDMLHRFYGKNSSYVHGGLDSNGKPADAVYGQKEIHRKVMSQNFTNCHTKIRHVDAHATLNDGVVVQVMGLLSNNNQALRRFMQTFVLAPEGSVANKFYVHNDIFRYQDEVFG

In the case of MSDNGPQNQRNAPRITFGGPSDSTG [SARS-CoV-2 N_(1–25) peptide (residues 1-25 of the N protein)], the dH is -17.6 kcal/mol.
